Data as given in article PMC9209732, “Transcriptional Regulation of ING5 and its Suppressive Effects on Gastric Cancer”.

Target: YY1 (UniProt P25490 1-414)
Test: EMSA; EMSA: 5-10 ug protein, 50 nM probe, 5% non-denaturing PAGE, streptavidin-HRP/ECL; buffer, salt, pH and temperature not stated
Settings: protein: recombinant; tags: His (GST also stated in Results); label: 3' biotin; blunt

Chain of YY1 (P25490 whole entry): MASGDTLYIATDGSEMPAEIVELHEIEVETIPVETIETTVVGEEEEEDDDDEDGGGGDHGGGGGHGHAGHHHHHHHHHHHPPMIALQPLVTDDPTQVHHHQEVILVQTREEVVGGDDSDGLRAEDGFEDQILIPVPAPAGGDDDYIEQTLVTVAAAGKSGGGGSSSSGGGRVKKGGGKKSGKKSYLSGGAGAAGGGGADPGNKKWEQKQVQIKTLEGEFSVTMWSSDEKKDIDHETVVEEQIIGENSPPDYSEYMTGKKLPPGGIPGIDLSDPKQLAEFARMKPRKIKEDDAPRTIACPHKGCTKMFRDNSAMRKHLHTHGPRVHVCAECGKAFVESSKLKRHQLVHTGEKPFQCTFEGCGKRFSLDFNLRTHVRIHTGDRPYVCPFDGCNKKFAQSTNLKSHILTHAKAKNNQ

B1: ING5 promoter probe (-48 to 25) (dsDNA)
DNA 1: CGCTGGCACCGCCCCGCCCCCGCCTCCCGCGGCACCGCCCGCCCGCGCAGACCCCGAGCGCGGCCGCGGACGAA
DNA 2: TTCGTCCGCGGCCGCGCTCGGGGTCTGCGCGGGCGGGCGGTGCCGCGGGAGGCGGGGGCGGGGCGGTGCCAGCG
B1: binds.
